IntAct's records for PubMed 34948388

B1: Multifunctional methyltransferase subunit TRM112-like protein (Homo sapiens), Q9UI30 (parent)
chain: MKLLTHNLLSSHVRGVGSRGFPLRLQATEVRICPVEFNPNFVARMIPKVEWSAFLEAADNLRLIQVPKGPVEGYEENEEFLRTMHHLLLEVEVIEGTLQCPESGRMFPISRGIPNMLLSEEETES
partner: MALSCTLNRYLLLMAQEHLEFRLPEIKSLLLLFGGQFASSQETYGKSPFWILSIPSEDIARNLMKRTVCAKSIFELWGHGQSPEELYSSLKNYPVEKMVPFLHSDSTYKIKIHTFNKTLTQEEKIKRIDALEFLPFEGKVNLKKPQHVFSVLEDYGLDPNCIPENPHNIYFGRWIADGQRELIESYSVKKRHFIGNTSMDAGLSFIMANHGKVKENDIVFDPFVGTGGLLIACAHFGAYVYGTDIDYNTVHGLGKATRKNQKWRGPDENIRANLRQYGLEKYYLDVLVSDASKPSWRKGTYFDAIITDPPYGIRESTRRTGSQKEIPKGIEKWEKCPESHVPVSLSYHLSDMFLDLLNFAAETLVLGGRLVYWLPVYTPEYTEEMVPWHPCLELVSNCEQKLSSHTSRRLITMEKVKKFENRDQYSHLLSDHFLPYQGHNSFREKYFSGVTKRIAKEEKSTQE
B2: Multifunctional methyltransferase subunit TRM112-like protein (Homo sapiens), Q9UI30 (parent)
chain: B1 chain
partner: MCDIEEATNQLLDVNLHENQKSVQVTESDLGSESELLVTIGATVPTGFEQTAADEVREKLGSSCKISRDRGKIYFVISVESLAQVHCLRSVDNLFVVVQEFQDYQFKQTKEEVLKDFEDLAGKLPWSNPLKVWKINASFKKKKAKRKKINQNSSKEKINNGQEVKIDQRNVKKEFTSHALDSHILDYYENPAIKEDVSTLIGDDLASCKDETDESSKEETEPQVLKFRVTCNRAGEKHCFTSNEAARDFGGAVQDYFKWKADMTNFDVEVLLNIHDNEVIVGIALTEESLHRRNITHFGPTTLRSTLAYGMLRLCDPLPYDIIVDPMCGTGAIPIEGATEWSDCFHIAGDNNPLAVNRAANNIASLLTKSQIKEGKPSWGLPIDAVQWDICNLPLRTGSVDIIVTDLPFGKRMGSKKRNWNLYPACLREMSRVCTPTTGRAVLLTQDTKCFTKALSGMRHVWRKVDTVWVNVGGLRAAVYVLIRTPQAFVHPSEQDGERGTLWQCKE
B3: Multifunctional methyltransferase subunit TRM112-like protein (Homo sapiens), Q9UI30 (parent)
chain: B1 chain
partner: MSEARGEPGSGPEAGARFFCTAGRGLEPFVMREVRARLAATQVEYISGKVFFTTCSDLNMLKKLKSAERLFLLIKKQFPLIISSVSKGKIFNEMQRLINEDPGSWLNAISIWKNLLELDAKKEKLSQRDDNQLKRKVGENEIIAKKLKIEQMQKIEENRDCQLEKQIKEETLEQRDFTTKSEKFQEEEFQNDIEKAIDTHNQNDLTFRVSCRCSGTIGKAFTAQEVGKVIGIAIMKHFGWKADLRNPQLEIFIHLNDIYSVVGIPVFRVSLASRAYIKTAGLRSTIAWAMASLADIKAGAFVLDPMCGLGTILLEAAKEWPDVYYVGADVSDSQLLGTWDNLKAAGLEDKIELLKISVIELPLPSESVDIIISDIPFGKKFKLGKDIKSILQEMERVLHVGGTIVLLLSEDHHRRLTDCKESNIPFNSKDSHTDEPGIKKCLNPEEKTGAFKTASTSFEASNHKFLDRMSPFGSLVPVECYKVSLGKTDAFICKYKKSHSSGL

Variants of: B1
Settings: with trm11_human TRMT11, Q7Z4G4

Variant | effect of a mutation on the interaction
MKLLTHNLLSSHVRGVGSRGFPLRLQATEVRICPVEFNPNFVARMIPKVEWSAFLEAADNLRLIQVPKGPVEGYEENEEFLRTMHHLLLEVEVIEGTLQCPESGRMFPISRGAPNMLLSEEETES [I113A] | with no effect

Variants of: B2
Settings: with thum3_human THUMPD3, Q9BV44

Variant | effect of a mutation on the interaction
MKLLAHNLLSSHVRGVGSRGFPLRLQATEVRICPVEFNPNFVARMIPKVEWSAFLEAADNLRLIQVPKGPVEGYEENEEFLRTMHHLLLEVEVIEGTLQCPESGRMFPISRGIPNMLLSEEETES [T5A] | disrupting interaction strength
MKLLTHNWLSSHVRGVGSRGFPLRLQATEVRICPVEFNPNFVARMIPKVEWSAFLEAADNLRLIQVPKGPVEGYEENEEFLRTMHHLLLEVEVIEGTLQCPESGRMFPISRGIPNMLLSEEETES [L8W] | disrupting interaction strength
MKLLTHNLLFSHVRGVGSRGFPLRLQATEVRICPVEFNPNFVARMIPKVEWSAFLEAADNLRLIQVPKGPVEGYEENEEFLRTMHHLLLEVEVIEGTLQCPESGRMFPISRGIPNMLLSEEETES [S10F] | with no effect
MKLLTHNLLSSHVRGVGSRGFPLRLQATEVRICPVEFNPNFVARAIPKVEWSAFLEAADNLRLIQVPKGPVEGYEENEEFLRTMHHLLLEVEVIEGTLQCPESGRMFPISRGIPNMLLSEEETES [M45A] | disrupting interaction strength
MKLLTHNLLSSHVRGVGSRGFPLRLQATEVRICPVEFNPNFVARMIPAVEWSAFLEAADNLRLIQVPKGPVEGYEENEEFLRTMHHLLLEVEVIEGTLQCPESGRMFPISRGIPNMLLSEEETES [K48A] | disrupting interaction strength
MKLLTHNLLSSHVRGVGSRGFPLRLQATEVRICPVEFNPNFVARMIPAVEWSAFLEAADNLRLIQVPKGPVEGYEENEEFLRTMHHLLLEVAVIEGTLQCPESGRMFPISRGIPNMLLSEEETES [K48A;E92A] | disrupting interaction strength
MKLLTHNLLSSHVRGVGSRGFPLRLQATEVRICPVEFNPNFVARMIPKVAWSAFLEAADNLRLIQVPKGPVEGYEENEEFLRTMHHLLLEVEVIEGTLQCPESGRMFPISRGIPNMLLSEEETES [E50A] | with no effect
MKLLTHNLLSSHVRGVGSRGFPLRLQATEVRICPVEFNPNFVARMIPKVEWSAFLEAADNLRLIQVPKGPVEGYEENEEFLRTMHHLLLEVAVIEGTLQCPESGRMFPISRGIPNMLLSEEETES [E92A] | disrupting interaction strength
MKLLTHNLLSSHVRGVGSRGFPLRLQATEVRICPVEFNPNFVARMIPKVEWSAFLEAADNLRLIQVPKGPVEGYEENEEFLRTMHHLLLEVEVIEGTLQCPESGRMAPISRGIPNMLLSEEETES [F107A] | disrupting interaction strength
MKLLTHNLLSSHVRGVGSRGFPLRLQATEVRICPVEFNPNFVARMIPKVEWSAFLEAADNLRLIQVPKGPVEGYEENEEFLRTMHHLLLEVEVIEGTLQCPESGRMFPISRGAPNMLLSEEETES [I113A] | disrupting interaction strength

Variants of: B3
Settings: with thum2_human THUMPD2, Q9BTF0

Variant | effect of a mutation on the interaction
MKLLTHNLLSSHVRGVGSRGFPLRLQATEVRICPVEFNPNFVARMIPKVEWSAFLEAADNLRLIQVPKGPVEGYEENEEFLRTMHHLLLEVAVIEGTLQCPESGRMFPISRGIPNMLLSEEETES [E92A] | disrupting interaction strength
MKLLTHNLLSSHVRGVGSRGFPLRLQATEVRICPVEFNPNFVARMIPAVEWSAFLEAADNLRLIQVPKGPVEGYEENEEFLRTMHHLLLEVAVIEGTLQCPESGRMFPISRGIPNMLLSEEETES [K48A;E92A] | disrupting interaction strength
MKLLTHNWLSSHVRGVGSRGFPLRLQATEVRICPVEFNPNFVARMIPKVEWSAFLEAADNLRLIQVPKGPVEGYEENEEFLRTMHHLLLEVEVIEGTLQCPESGRMFPISRGIPNMLLSEEETES [L8W] | disrupting interaction strength
MKLLTHNLLSSHVRGVGSRGFPLRLQATEVRICPVEFNPNFVARAIPKVEWSAFLEAADNLRLIQVPKGPVEGYEENEEFLRTMHHLLLEVEVIEGTLQCPESGRMFPISRGIPNMLLSEEETES [M45A] | disrupting interaction strength
MKLLTHNLLSSHVRGVGSRGFPLRLQATEVRICPVEFNPNFVARMIPKVEWSAFLEAADNLRLIQVPKGPVEGYEENEEFLRTMHHLLLEVEVIEGTLQCPESGRMAPISRGIPNMLLSEEETES [F107A] | disrupting interaction strength
MKLLTHNLLSSHVRGVGSRGFPLRLQATEVRICPVEFNPNFVARMIPKVAWSAFLEAADNLRLIQVPKGPVEGYEENEEFLRTMHHLLLEVEVIEGTLQCPESGRMFPISRGIPNMLLSEEETES [E50A] | with no effect
MKLLTHNLLSSHVRGVGSRGFPLRLQATEVRICPVEFNPNFVARMIPKVEWSAFLEAADNLRLIQVPKGPVEGYEENEEFLRTMHHLLLEVEVIEGTLQCPESGRMFPISRGAPNMLLSEEETES [I113A] | disrupting interaction strength
MKLLAHNLLSSHVRGVGSRGFPLRLQATEVRICPVEFNPNFVARMIPKVEWSAFLEAADNLRLIQVPKGPVEGYEENEEFLRTMHHLLLEVEVIEGTLQCPESGRMFPISRGIPNMLLSEEETES [T5A] | disrupting interaction strength
MKLLTHNLLSSHVRGVGSRGFPLRLQATEVRICPVEFNPNFVARMIPAVEWSAFLEAADNLRLIQVPKGPVEGYEENEEFLRTMHHLLLEVEVIEGTLQCPESGRMFPISRGIPNMLLSEEETES [K48A] | disrupting interaction strength
